This note sets out measurements from patent US20110150759A1.

One experiment concerns the target C271A/C283A-EGFR (human) (UniProt P00533). As to the kind of experiment: flow cytometry on Ba/F3 cells, median fluorescence, average of four independent clones; reference M2 anti-FLAG antibody. A general note: Flow cytometry measures light scatter and fluorescence of single cells or particles in a stream.
A further experiment addresses wtEGFR-FLAG (human) (UniProt P00533). As to the kind of experiment: flow cytometry on Ba/F3 cells, median fluorescence; reference M2 anti-FLAG antibody.
For experiment [1], the target named is EGFR 1-621 full length extracellular domain (human) (UniProt P00533). As to the kind of experiment: SPR (BIAcore), EGFR fragment 1-621 (can form tether). A general note: In SPR one partner is held on a chip, and binding of the other changes the refractive index at the surface.
Experiment [2] has as its target soluble EGFR fragment 1-501 (human) (UniProt P00533). As to the kind of experiment: SPR (BIAcore), EGFR fragment 1-501 (unable to form tether).

Chain of monoclonal antibody 806 (VH): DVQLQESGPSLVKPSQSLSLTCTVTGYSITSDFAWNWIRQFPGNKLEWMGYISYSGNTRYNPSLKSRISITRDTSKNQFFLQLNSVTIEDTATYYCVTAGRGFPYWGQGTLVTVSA
Chain of monoclonal antibody 806 (VL): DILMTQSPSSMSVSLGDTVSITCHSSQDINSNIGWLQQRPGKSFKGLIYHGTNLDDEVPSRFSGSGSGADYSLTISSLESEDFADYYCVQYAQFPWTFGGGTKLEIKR

With mAb 528 (antibody), the ratio of antibody binding mAb 528/M2 is 1.08 in the experiment with C271A/C283A-EGFR (human) and 1.37 in the experiment with wtEGFR-FLAG (human).

monoclonal antibody 806: the Kd (commonly the equilibrium constant for the complex coming apart) stood at 389 nM in experiment [1] and 34 nM in experiment [2].
